From PMC5050560

B1: Pr46 (dsDNA)
DNA 1: TTTTTTTATTTATAAACATTATTAAAAAAATATAGATGTTTTGGTTATATTCCTTGTCCTTTATAAATAGAATTATATAAACAAAGGAGGAGGACAAGAG
DNA 2: CTCTTGTCCTCCTCCTTTGTTTATATAATTCTATTTATAAAGGACAAGGAATATAACCAAAACATCTATATTTTTTTAATAATGTTTATAAATAAAAAAA
B2: Pr47 (dsDNA)
DNA 1: TCTTGACCTCGATAAGTGTCGTAAGTCAAGGGTAATTTATATATCAGTGAAAAATAATTACATTTAATCTAATGTTTTTAGAGAGGAGGATGCTATGTTA
DNA 2: TAACATAGCATCCTCCTCTCTAAAAACATTAGATTAAATGTAATTATTTTTCACTGATATATAAATTACCCTTGACTTACGACACTTATCGAGGTCAAGA
B3: Pr118 (dsDNA)
DNA 1: AACCCGTCATATGGCTTGAGTTTATACTCAAGCTTTTTTTATTGGTATATTTATATATATAAATAATTTAATATAATCAAAATGATGGGGGTATGTTACA
DNA 2: TGTAACATACCCCCATCATTTTGATTATATTAAATTATTTATATATATAAATATACCAATAAAAAAAGCTTGAGTATAAACTCAAGCCATATGACGGGTT
B4: Pr27 (Pobg) (dsDNA)
DNA 1: ATACATAAAAGGAGTGTTGAGGCACTCCTTTTTCTTATAATACTGATGAATTTATAATGGTATTTTTGGTAATGCTAATTAAAAGTTTTTAATTAAGTAG
DNA 2: CTACTTAATTAAAAACTTTTAATTAGCATTACCAAAAATACCATTATAAATTCATCAGTATTATAAGAAAAAGGAGTGCCTCAACACTCCTTTTATGTAT
B5: Pr119 (dsDNA)
DNA 1: TTTCAACCACTCCTCTTAGTTTGATTTGGTAAGTTTAGGTCGGTATTTATTATATAATATAAATGAAACATTATATAATGGAAAAATTTCCCAGTAAACT
DNA 2: AGTTTACTGGGAAATTTTTCCATTATATAATGTTTCATTTATATTATATAATAAATACCGACCTAAACTTACCAAATCAAACTAAGAGGAGTGGTTGAAA
B6: Pr101 (dsDNA)
DNA 1: GTACTATACAGCCTGGAGTAG
DNA 2: CTACTCCAGGCTGTATAGTAC

Biological target: cdPadR1 (Clostridium difficile R20291, UniProt A0A9R0CDW8 1-109)
Assay: EMSA; 20 mM Tris pH 8.0, 120 mM KCl, 10 mM MgCl2, 5 mM DTT, 12.5% glycerol, 125 ug/mL heparin, room temperature
Conditions: protein: recombinant; tags: N-terminal Strep II; chain copies: 2

Row | Binder | binding result
1 | B1 | binds
2 | B2 | no binding
3 | B3 | binds
4 | B4 | binds
5 | B5 | binds

Biological target: cdPadR1 (Clostridium difficile R20291, UniProt A0A9R0CDW8 1-109)
Assay: EMSA; no significant binding; EMSA: 20 mM Tris pH 8.0, 120 mM KCl, 12.5% glycerol, 10 mM MgCl2, 5 mM DTT, 125 ug/mL heparin (400 ug/mL in competition), room temperature; 8% PAGE in TB
Conditions: protein: recombinant; tags: N-terminal Strep II; chain copies: 2; blunt

Row | Binder | binding result
6 | B6 | no binding
